Experimental data taken from publication PMC7873624 (Journal of molecular biology, 2020).

B1: Pol ι peptide 438–448 (peptide)
peptide: SGKHSFKMKDT
B2: Pol ι peptide 573–584 (peptide)
peptide: SPCEPGTSGFN

Assays:
[1] = target: recombinant USP7 UBL1-2 (residues 535–775) (UniProt Q93009 535-775); assay: ITC
[2] = target: recombinant USP7 TRAF domain (residues 62–205) (UniProt Q93009 62-205); assay: ITC
recombinant USP7 TRAF domain (residues 62–205), sequence (Q93009 62-205): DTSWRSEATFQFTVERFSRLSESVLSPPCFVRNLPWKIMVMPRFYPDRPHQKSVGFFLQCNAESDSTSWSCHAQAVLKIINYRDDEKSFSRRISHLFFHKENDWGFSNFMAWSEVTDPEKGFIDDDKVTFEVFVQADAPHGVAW

recombinant USP7 UBL1-2 (residues 535–775), sequence (Q93009 535-775): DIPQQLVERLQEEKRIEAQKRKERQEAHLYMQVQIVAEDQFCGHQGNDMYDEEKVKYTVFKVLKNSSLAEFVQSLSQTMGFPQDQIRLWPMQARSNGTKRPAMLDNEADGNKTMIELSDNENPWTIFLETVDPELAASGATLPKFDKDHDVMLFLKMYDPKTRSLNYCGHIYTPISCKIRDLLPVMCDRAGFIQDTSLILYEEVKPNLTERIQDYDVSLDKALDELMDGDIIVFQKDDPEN

Binder	Kd [1]	Kd [2]
B1	169 µM	
B2		4.8 µM
